# Test results published in patent US20210340252A1.
# Target: human TIM-3 protein (coated on ELISA plates) (human) (UniProt Q8TDQ0)
# Assay: competition ELISA on plate-coated human TIM-3 against biotinylated WBP340-BMK8 (self-competition), detection with SA-HRP
binder,measurement,value
"WBP340-BMK8 (antibody, from another filing, human IgG4, V domains shown) VH: QVQLVQSGAEVKKPGSSVKVSCKASGYTFTSYNMHWVRQAPGQGLEWMGDIYPGNGDTSYNQKFKGRVTITADKSTSTVYMELSSLRSEDTAVYYCARVGGAFPMDYWGQGTTVTVSS VL: AIQLTQSPSSLSASVGDRVTITCRASESVEYYGTSLMQWYQQKPGKAPKLLIYAASNVESGVPSRFSGSGSGTDFTLTISSLQPEDFATYFCQQSRKDPSTFGGGTKVEIKR",IC50 (read off the curve),2 nM
